The supplement of paper PMC7877785
± gives the uncertainty stated by the source.

Assay: self-splicing fitness, log relative to wild type (ln ratio); higher = more splicing; Tetrahymena group I intron in knt gene, E. coli kanamycin selection, DiMSum; sequences stand for … in CUCUCU…GGAGGGAAAAGUUAUCAGGCAUGCACCUGGUAGCUAGUCUUUAAACCAAUAGAUUGCAUCGGUUUAAAAGGCAAGACCGUCAAAUUGCGGGAAAGGGGUCAACAGCCGUUCAGUACCAAGUCUCAGGGGAAACUUUGAGAUGGCCUUGCAAAGGGUAUGGUAAUAAGCUGACGGACAUGGUCCUAACCACGCAGCCAAGUCCUAAGUCAACAGAUCUUCUGUUGAUAUGGAUGCAGUUCACAGACUAAAUGUCGGUCGGGGAAGAUGUAUUCUUCUCAUAAGAUAUAGUCGGACCUCUCCUUAAUGGGAGCUAGCGGAUGAAGUGAUGCAACACUGGAGCCGCUGGGAACUAAUUUGUAUGCGAAAGUAUAUUGAUUAGUUUUGGAGUACUCGUGGUCG
Procedure, shortened: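 Pooled colonies went to amplicon sequencing on an Illumina HiSeq 2500 after six replicate transformations. The plates were LB agar with 100 μg/mL carbenicillin, 50 μM IPTG and 0.2% rhamnose, with or without 25 μg/mL kanamycin, incubated overnight at 37°C or 30°C. The E. coli BL21(DE3) library had all eight P1ex-region intron nucleotides randomised, the intron placed in the knt kanamycin-resistance gene on pET-22b(+). DiMSum fitness is the error-weighted combination of replicate fold changes, kanamycin against none, normalised to wild type.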

In the case of CUUCAGCAAUAUUACGCUCG, the “self-splicing fitness (ln)” value (30 °C) is reported as -2.42 ± 0.15 and the “self-splicing fitness (ln)” value (37 °C) is reported as -0.933 ± 0.26.

In the case of CUUCAGCAAUAUUACGGAAU, the “self-splicing fitness (ln)” value (30 °C) is reported as -1.46 ± 0.13 and the “self-splicing fitness (ln)” value (37 °C) is reported as -1.17 ± 0.14.

With CUUCAGCAAUAUUACGGAGA the “self-splicing fitness (ln)” value (30 °C) was -3.47 ± 0.21 and the “self-splicing fitness (ln)” value (37 °C) was -3.04 ± 0.19.

With CUUCAGCAAUAUUACGGGGA the “self-splicing fitness (ln)” value (30 °C) was -3.36 ± 0.27 and the “self-splicing fitness (ln)” value (37 °C) was -1.65 ± 0.18.

With CUUCAGCAAUAUUACGGUAA the “self-splicing fitness (ln)” value (30 °C) was -1.67 ± 0.23 and the “self-splicing fitness (ln)” value (37 °C) was -1.88 ± 0.17.

With CUUCAGCAAUAUUACGGUCA the “self-splicing fitness (ln)” value (30 °C) was -2.2 ± 0.25 and the “self-splicing fitness (ln)” value (37 °C) was -3.2 ± 0.24.

With CUUCAGCAAUAUUACGUUGU the “self-splicing fitness (ln)” value (30 °C) was -3.52 ± 0.18 and the “self-splicing fitness (ln)” value (37 °C) was -2.92 ± 0.28.

With CUUGAGCAAUAUUACGACUU the “self-splicing fitness (ln)” value (30 °C) was -2.53 ± 0.37 and the “self-splicing fitness (ln)” value (37 °C) was -3.56 ± 0.43.

With CUUGAGCAAUAUUACGAGCA the “self-splicing fitness (ln)” value (30 °C) was -2.65 ± 0.41 and the “self-splicing fitness (ln)” value (37 °C) was -3.07 ± 0.33.

With CUUGAGCAAUAUUACGAGGA the “self-splicing fitness (ln)” value (30 °C) was -3.08 ± 0.38.

For CUUGAGCAAUAUUACGAUAA, the “self-splicing fitness (ln)” value (30 °C) was -3.27 ± 0.31 and the “self-splicing fitness (ln)” value (37 °C) was -0.951 ± 0.37.

With CUUGAGCAAUAUUACGAUGU the “self-splicing fitness (ln)” value (30 °C) was -2.24 ± 0.14 and the “self-splicing fitness (ln)” value (37 °C) was -3.43 ± 0.26.

For CUUGAGCAAUAUUACGCAGG, the “self-splicing fitness (ln)” value (30 °C) was -3.46 ± 0.25 and the “self-splicing fitness (ln)” value (37 °C) was -3.55 ± 0.35.

With CUUGAGCAAUAUUACGCUAA the “self-splicing fitness (ln)” value (30 °C) was -4.05 ± 0.31 and the “self-splicing fitness (ln)” value (37 °C) was -3.36 ± 0.35.

In the case of CUUGAGCAAUAUUACGCUAU, the “self-splicing fitness (ln)” value (30 °C) is reported as -3.44 ± 0.34 and the “self-splicing fitness (ln)” value (37 °C) is reported as -2.58 ± 0.49.

In the case of CUUGAGCAAUAUUACGCUCU, the “self-splicing fitness (ln)” value (30 °C) is reported as -2.57 ± 0.5 and the “self-splicing fitness (ln)” value (37 °C) is reported as -1.13 ± 0.33.

For CUUGAGCAAUAUUACGGAUU, the “self-splicing fitness (ln)” value (30 °C) was -4.83 ± 0.45 and the “self-splicing fitness (ln)” value (37 °C) was -3.23 ± 0.29.

In the case of CUUGAGCAAUAUUACGGCAU, the “self-splicing fitness (ln)” value (37 °C) is reported as -1.93 ± 0.28.

For CUUGAGCAAUAUUACGGGCA, the “self-splicing fitness (ln)” value (30 °C) was -3.94 ± 0.35 and the “self-splicing fitness (ln)” value (37 °C) was -1.91 ± 0.21.

In the case of CUUGAGCAAUAUUACGGUAA, the “self-splicing fitness (ln)” value (37 °C) is reported as -2.99 ± 0.47.

In the case of CUUGAGCAAUAUUACGGUAC, the “self-splicing fitness (ln)” value (30 °C) is reported as -2.24 ± 0.2 and the “self-splicing fitness (ln)” value (37 °C) is reported as -2.16 ± 0.42.

For CUUGAGCAAUAUUACGUAAU, the “self-splicing fitness (ln)” value (30 °C) was -2.79 ± 0.18 and the “self-splicing fitness (ln)” value (37 °C) was -2.81 ± 0.24.

In the case of CUUGAGCAAUAUUACGUAGU, the “self-splicing fitness (ln)” value (30 °C) is reported as -3.28 ± 0.3 and the “self-splicing fitness (ln)” value (37 °C) is reported as -2.11 ± 0.33.

In the case of CUUGAGCAAUAUUACGUCAU, the “self-splicing fitness (ln)” value (30 °C) is reported as -3.58 ± 0.29 and the “self-splicing fitness (ln)” value (37 °C) is reported as -2.88 ± 0.31.

In the case of CUUGAGCAAUAUUACGUGAC, the “self-splicing fitness (ln)” value (30 °C) is reported as -2.55 ± 0.24 and the “self-splicing fitness (ln)” value (37 °C) is reported as -1.08 ± 0.19.

For CUUGAGCAAUAUUACGUGUA, the “self-splicing fitness (ln)” value (30 °C) was -2.71 ± 0.14 and the “self-splicing fitness (ln)” value (37 °C) was -2.84 ± 0.2.

With CUUGAGCAAUAUUACGUGUG the “self-splicing fitness (ln)” value (30 °C) was -2.12 ± 0.07 and the “self-splicing fitness (ln)” value (37 °C) was -0.901 ± 0.073.

For CUUUAGCAAUAUUACGAACU, the “self-splicing fitness (ln)” value (30 °C) was -3.28 ± 0.24 and the “self-splicing fitness (ln)” value (37 °C) was -2.54 ± 0.19.

With CUUUAGCAAUAUUACGCAAG the “self-splicing fitness (ln)” value (30 °C) was -2.43 ± 0.22 and the “self-splicing fitness (ln)” value (37 °C) was -1.67 ± 0.3.

In the case of CUUUAGCAAUAUUACGCGCU, the “self-splicing fitness (ln)” value (30 °C) is reported as -3.14 ± 0.25 and the “self-splicing fitness (ln)” value (37 °C) is reported as -0.469 ± 0.17.

For CUUUAGCAAUAUUACGCGUA, the “self-splicing fitness (ln)” value (30 °C) was -3.14 ± 0.26 and the “self-splicing fitness (ln)” value (37 °C) was -3.28 ± 0.35.

With CUUUAGCAAUAUUACGCUAC the “self-splicing fitness (ln)” value (30 °C) was -2.83 ± 0.35.

With CUUUAGCAAUAUUACGGCAA the “self-splicing fitness (ln)” value (30 °C) was -2.06 ± 0.24 and the “self-splicing fitness (ln)” value (37 °C) was -1.98 ± 0.28.

In the case of CUUUAGCAAUAUUACGGGAU, the “self-splicing fitness (ln)” value (30 °C) is reported as -3.8 ± 0.22 and the “self-splicing fitness (ln)” value (37 °C) is reported as -2.67 ± 0.19.

For CUUUAGCAAUAUUACGGUGU, the “self-splicing fitness (ln)” value (30 °C) was -3.52 ± 0.21 and the “self-splicing fitness (ln)” value (37 °C) was -3.12 ± 0.25.

With CUUUAGCAAUAUUACGUACG the “self-splicing fitness (ln)” value (30 °C) was -0.271 ± 0.098 and the “self-splicing fitness (ln)” value (37 °C) was 0.109 ± 0.12.

For CUUUAGCAAUAUUACGUCGG, the “self-splicing fitness (ln)” value (30 °C) was -1.79 ± 0.11 and the “self-splicing fitness (ln)” value (37 °C) was -1.25 ± 0.12.

In the case of CUUUAGCAAUAUUACGUUAU, the “self-splicing fitness (ln)” value (30 °C) is reported as -3.64 ± 0.23 and the “self-splicing fitness (ln)” value (37 °C) is reported as -1.79 ± 0.19.

In the case of GAAAAGCAAUAUUACGACAU, the “self-splicing fitness (ln)” value (30 °C) is reported as -0.184 ± 0.011 and the “self-splicing fitness (ln)” value (37 °C) is reported as 0.116 ± 0.032.

In the case of GAAAAGCAAUAUUACGACGU, the “self-splicing fitness (ln)” value (30 °C) is reported as 0.263 ± 0.088 and the “self-splicing fitness (ln)” value (37 °C) is reported as 0.769 ± 0.099.

In the case of GAAAAGCAAUAUUACGAUUU, the “self-splicing fitness (ln)” value (30 °C) is reported as -0.346 ± 0.052 and the “self-splicing fitness (ln)” value (37 °C) is reported as -0.372 ± 0.073.

For GAAAAGCAAUAUUACGCCCU, the “self-splicing fitness (ln)” value (30 °C) was 0.325 ± 0.12 and the “self-splicing fitness (ln)” value (37 °C) was -0.233 ± 0.14.

With GAAAAGCAAUAUUACGCGAC the “self-splicing fitness (ln)” value (37 °C) was 0.397 ± 0.26.

With GAAAAGCAAUAUUACGGACC the “self-splicing fitness (ln)” value (30 °C) was -0.128 ± 0.094 and the “self-splicing fitness (ln)” value (37 °C) was -0.398 ± 0.15.

With GAAAAGCAAUAUUACGGAUU the “self-splicing fitness (ln)” value (30 °C) was -2.03 ± 0.09 and the “self-splicing fitness (ln)” value (37 °C) was -1.03 ± 0.11.

In the case of GAAAAGCAAUAUUACGGCAG, the “self-splicing fitness (ln)” value (30 °C) is reported as -3.02 ± 0.25 and the “self-splicing fitness (ln)” value (37 °C) is reported as -1.96 ± 0.23.

With GAAAAGCAAUAUUACGGCGC the “self-splicing fitness (ln)” value (30 °C) was 0.706 ± 0.11 and the “self-splicing fitness (ln)” value (37 °C) was 0.245 ± 0.18.

With GAAAAGCAAUAUUACGGUCU the “self-splicing fitness (ln)” value (30 °C) was -0.737 ± 0.057 and the “self-splicing fitness (ln)” value (37 °C) was -0.398 ± 0.072.

In the case of GAAAAGCAAUAUUACGGUGU, the “self-splicing fitness (ln)” value (30 °C) is reported as -2.55 ± 0.096 and the “self-splicing fitness (ln)” value (37 °C) is reported as -0.927 ± 0.11.
